From article PMC7193897

Tests used:
[1] = substrate: CCCC(=O)N[C@H]1CCOC1=O; experiment: purified protein; conditions: pH 8.3
[2] = substrate: CCCCCCCCCC(=O)CC(=O)N[C@H]1CCOC1=O; experiment: purified protein; conditions: pH 8.3

B1: GcL (Parageobacillus caldoxylosilyticus NBRC 107762) (protein)
chain: MANVIKARPKLYVMDNGRMRMDKNWMIAMHNPATIHNPNAQTEFVEFPIYTVLIDHPEGKILFDTSCNPNSMGPQGRWAESTQQMFPWTATEECYLHNRLEQLKVRPEDIRYVVASHLHLDHAGCLEMFTNATIIVHEDEFNGALQCYARNQKEGAYIWADIDAWIKNNLQWRTVKRHEDNILLAEGVKVLNFGSGHAWGMLGLHVELPETGGIILASDAIYTAESYGPPIKPPGIIYDSLGYMNTVERIRRIAQETKSQVWFGHDAEQFKKFRKSTEGYYE
B1 was tested, and the Km [1] was “(9.8 ± 0.7) × 10^2 μM”, the kcat/Km [1] was 43000 M⁻¹ s⁻¹ and the Km [2] was 97 ± 9 µM.
